Test results as given in patent US20240238445A1, “INHIBITORS AND USES THEREOF” (NEURACLE SCIENCE CO., LTD., priority 2021, published 2024).

B1: LRRC4B (453-576): LRRC4B ectodomain fragment, amino acids 453-576 of SEQ ID NO: 2; FLAG-tagged or hFc-fused (protein)
chain: VSAVDPVAAGGTGSGGGGPGGSGGVGGGSGGYTYFTTVTVETLETQPGEEALQPRGTEKEPPGPTTDGVWGGGRPGDAAGPASSSTTAPAPRSSRPTEKAFTVPITDVTENALKDLDDVMKTTK
modifications: FLAG tag or human Fc
notes: FLAG-tagged or hFc-fused
B2: LRRC4B (498-576): LRRC4B ectodomain fragment, amino acids 498-576 of SEQ ID NO: 2 (protein)
chain: QPGEEALQPRGTEKEPPGPTTDGVWGGGRPGDAAGPASSSTTAPAPRSSRPTEKAFTVPITDVTENALKDLDDVMKTTK

Target: binding of FAM19A5 protein to full-length ectodomain of the LRRC4B protein (amino acids 36-576 of SEQ ID NO: 2) (Homo sapiens, UniProt Q7Z5A7)
Experiment: Competitive inhibition assay, plate coated with full-length ectodomain of LRRC4B (amino acids 36-576)
Settings: for inhibition of FAM19A5 binding to coated full-length LRRC4B ectodomain protein (in words): increasing concentrations, FAM19A5 5 ng/mL, 100 nM coat
In short: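 Wells are coated with 100 nM LRRC4B ectodomain (aa 36-576), and 5 ng/mL recombinant FAM19A5 is added with competitor: LRRC4B deletion constructs at increasing concentrations, or synthetic peptides at 20 nM. After incubation at 37 °C, bound FAM19A5 is detected with HRP-conjugated anti-FAM19A5 (1-65) antibody.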

Chain of binding of FAM19A5 protein to full-length ectodomain of the LRRC4B protein (amino acids 36-576 of SEQ ID NO: 2) (Q7Z5A7 44-132): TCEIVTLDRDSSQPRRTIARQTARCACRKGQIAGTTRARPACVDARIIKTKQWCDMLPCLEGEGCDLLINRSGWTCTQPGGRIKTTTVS

Molecule	inhibition of interaction between FAM19A5 and the coated LRRC4B protein fragments (in words) (20 nM peptide, statement covers both coats, LRRC4B (36-576) and LRRC4B (453-576))	Inhibition rate (%) LRRC4B (amino acids 36-576)-hFc (Table 8, 20 nM peptide, FAM19A5 5 ng/ml) [%]	Inhibition rate (%) LRRC4B (amino acids 36-576)-hFc (Table 9, deletion variants, 20 nM peptide, FAM19A5 5 ng/ml) [%]	Inhibition rate (%) LRRC4B (amino acids 36-576)-hFc (Table 10, alanine/asparagine mutants) [%]	inhibition of FAM19A5 binding to coated full-length LRRC4B ectodomain protein (in words)
GYTYFTTVTVETLETQPGEE [FB-20]	significantly decreased the interaction	77.0	84.3	77.0	–
B1	–	–	–	–	able to inhibit FAM19A5 protein from binding
B2	–	–	–	–	much inferior in their ability to inhibit the interaction
